4 proteins from US8357518B2, “Thermostable enzymes for the hydrolysis of mannan-containing polysaccharides” (The Board of Trustees of the University of Illinois, priority 2010, dated 2013) can be followed below.

Holding throughout (format): biochemical, Caldanaerobius polysaccharolyticus
Substrate in data set [1]: O=[N+]([O-])c1ccc(O[C@@H]2O[C@H](CO)[C@@H](O)[C@H](O)[C@@H]2O)cc1
The data set is described as follows: Kinetic properties with pNP-linked sugars (Man5B E137A). The settings on record: other: Man5B E137A 2 μM, at 10 mM substrate, 65° C., pH 5.5. As for the experimental part:
(§1) Determination of kinetic properties for wild type and mutant Man5B with pNP-linked sugars. Kinetic properties of wild type and mutant Man5B were determined for pNP-β-D-mannopyranoside and pNP-β-D-cellobioside. The substrate concentrations ranged from 0.06 to 10 mM and reactions were performed at 65° C. in citrate buffer (50 mM sodium citrate, pH 5.5). The reactions were equilibrated to 65° C. using a thermostated Cary 300 UV-Vis spectrophotometer, and the reactions were initiated by the addition of wild type (5 nM, final concentration) or mutant (2 μM, final concentration) Man5B. The rate of pNP release was determined by continuously monitoring the absorbance at 400 nm. Initial rate data were then plotted against the substrate concentrations, and the values of the Michaelis-Menten constant (KM) and the maximum velocity (Vmax) were estimated from a nonlinear curve fit using GraphPad Prism v5.01 from GraphPad Software (San Diego, Calif.). The kcat was calculated as the quotient of the Vmax and the concentration of enzyme used in the reaction.
(§2) Site-directed mutagenesis. Mutagenesis was carried out using PCR-based […] […]
(§3) Next, to test whether the mutations introduced in Man5B had any effects on the catalytic activity of this enzyme, the catalytic parameters for the wild type and mutant enzymes were determined using pNP-β-D-cellobioside and pNP-β-D-mannopyranoside as substrates.

Substrate in data set [2]: O=[N+]([O-])c1ccc(O[C@@H]2O[C@H](CO)[C@@H](O[C@@H]3O[C@H](CO)[C@@H](O)[C@H](O)[C@H]3O)[C@H](O)[C@H]2O)cc1
Described as above. The note with it: other: Man5B E137A 2 μM, at 10 mM substrate, 65° C., pH 5.5. As for the experimental part: as §1, §2, §3

Substrate in data set [3]: O=[N+]([O-])c1ccc(O[C@@H]2O[C@H](CO)[C@@H](O)[C@H](O)[C@@H]2O)cc1
As to the kind of experiment: Kinetic properties with pNP-linked sugars (Man5B E258A). The note with it: other: Man5B E258A 2 μM, at 10 mM substrate, 65° C., pH 5.5. How it is done:
as §1, §2, §3

Substrate in data set [4]: O=[N+]([O-])c1ccc(O[C@@H]2O[C@H](CO)[C@@H](O[C@@H]3O[C@H](CO)[C@@H](O)[C@H](O)[C@H]3O)[C@H](O)[C@H]2O)cc1
Described as above. The note with it: other: Man5B E258A 2 μM, at 10 mM substrate, 65° C., pH 5.5. As for the experimental part: as §1, §2, §3

Substrate in data set [5]: O=[N+]([O-])c1ccc(O[C@@H]2O[C@H](CO)[C@@H](O)[C@H](O)[C@@H]2O)cc1
As to the kind of experiment: Kinetic properties with pNP-linked sugars (Man5B E137Q). The note with it: other: Man5B E137Q 2 μM, at 10 mM substrate, 65° C., pH 5.5. How it is done: as §1
(§4) Site-directed mutagenesis. Mutagenesis was carried out using PCR-based […] XL site-directed mutagenesis kit from Stratagene (La Jolla, Calif.) according to the manufacturer's instructions. Mutagenic primers with the desired mutation were designed using the […]® Primer Design Program (Stratagene website) and are listed in Table 1-2). The DNA templates for the PCR amplifications were the pET28a-Man5A-TM1 plasmid and the pET46-Man5B plasmid for generation of the Man5A-TM1 and Man5B mutants, respectively. Following 18 cycles of PCR using Pfu Turbo, the PCR mixture was digested with DpnI at 37° C. for 12 h to remove the parental DNA, and the resulting DNA was transformed into competent E. coli JM109 cells through electroporation. The DNA was sequenced to confirm that there were no PCR-derived nucleotide changes except those introduced by the PCR primers. The mutated genes were then expressed to produce the mutant recombinant proteins. The expression and purification methods were as described above for wild-type Man5A-TM1 and Man5B.
as §3

Substrate in data set [6]: O=[N+]([O-])c1ccc(O[C@@H]2O[C@H](CO)[C@@H](O[C@@H]3O[C@H](CO)[C@@H](O)[C@H](O)[C@H]3O)[C@H](O)[C@H]2O)cc1
The description is as above. The settings on record: other: Man5B E137Q 2 μM, 65° C., citrate buffer pH 5.5. As for the experimental part:
as §1, §4, §3

Substrate in data set [7]: O=[N+]([O-])c1ccc(O[C@@H]2O[C@H](CO)[C@@H](O)[C@H](O)[C@@H]2O)cc1
The data set is described as follows: Kinetic properties with pNP-linked sugars (Man5B E258Q). The settings on record: other: Man5B E258Q 2 μM, at 10 mM substrate, 65° C., pH 5.5. How it is done: as §1, §2, §3

Substrate in data set [8]: O=[N+]([O-])c1ccc(O[C@@H]2O[C@H](CO)[C@@H](O[C@@H]3O[C@H](CO)[C@@H](O)[C@H](O)[C@H]3O)[C@H](O)[C@H]2O)cc1
The description is as above. The settings on record: other: Man5B E258Q 2 μM, at 10 mM substrate, 65° C., pH 5.5. How it is done:
as §1, §2, §3

Changes are numbered by the printed parent chain. Numbers in names are those of the source.

B1: Caldanaerobius polysaccharolyticus endo-β-mannanase Man5B (SEQ ID NO: 31) variant E137A (Caldanaerobius polysaccharolyticus; E137A) (protein)
chain: MKKYGFNFQWMYVWEEGREPEPPDKKALDFLAETGFNFVRIPVDYRFWTRNFDYFNPDKKVFEYIDLYLRECSARNIHMCLNLHRAPGYCINRNDIERDNLWLDKRAQDGFVYQWELFAKRYKGVSSKFLSFDLVNAPPNIGQYGLTRENHASLIIRTVEAIRKIDPDREIVIDGLGGGNIAMPELAHLGVVHSGRGYQPMALTHYQASWWDGHKGLPEPYYPDLLWQGKVWNKDTLREYYKPWRDLQQKGVNVHIGEFGCFNKTSNDVAIRWFEDVLSLYKEFEWGYSLWNFKGPFGIVEHGRPGAKYEYYRGFKVDRELLDLLVENRV
On to B1, for which the kcat in data set [1] came out at 0.019 ± 0.001 s⁻¹; in data set [2], 0.011 ± 0.004 s⁻¹.

B2: Caldanaerobius polysaccharolyticus endo-β-mannanase Man5B (SEQ ID NO: 31) variant E258A (Caldanaerobius polysaccharolyticus; E258A) (protein)
chain: B1 chain with A137E, E258A
In the case of B2, the kcat in data set [3] was 0.018 ± 0.003 s⁻¹; in data set [4], 0.011 ± 0.001 s⁻¹.

B3: Caldanaerobius polysaccharolyticus endo-β-mannanase Man5B (SEQ ID NO: 31) variant E137Q (Caldanaerobius polysaccharolyticus; E137Q) (protein)
chain: B1 chain with A137Q
With B3, the kcat in data set [5] was determined as 0.018 ± 0.006 s⁻¹. In data set [6], the Km result is reported as “(2.9 ± 0.9) × 10^−1 mM”, the kcat amounted to 0.047 ± 0.01 s⁻¹ and the kcat/Km came out at 160 ± 60 M⁻¹ s⁻¹.

B4: Caldanaerobius polysaccharolyticus endo-β-mannanase Man5B (SEQ ID NO: 31) variant E258Q (Caldanaerobius polysaccharolyticus; E258Q) (protein)
chain: B1 chain with A137E, E258Q
Take B4: the results for the kcat in data set [7] and in data set [8] were 0.012 ± 0.002 s⁻¹ and 0.012 ± 0.004 s⁻¹, respectively.

As usually defined, the kcat is the maximal rate divided by the concentration of active sites. What is called kcat/Km is the second-order rate constant that governs catalysis at low substrate concentration.
